The values below come from IntAct's records for PubMed 16499958.

B1: Rab5 GDP/GTP exchange factor (Homo sapiens), Q9UJ41 (parent)
chain: MSLKSERRGIHVDQSDLLCKKGCGYYGNPAWQGFCSKCWREEYHKARQKQIQEDWELAERLQREEEEAFASSQSSQGAQSLTFSKFEEKKTNEKTRKVTTVKKFFSASSRVGSKKEIQEAKAPSPSINRQTSIETDRVSKEFIEFLKTFHKTGQEIYKQTKLFLEGMHYKRDLSIEEQSECAQDFYHNVAERMQTRGKVPPERVEKIMDQIEKYIMTRLYKYVFCPETTDDEKKDLAIQKRIRALRWVTPQMLCVPVNEDIPEVSDMVVKAITDIIEMDSKRVPRDKLACITKCSKHIFNAIKITKNEPASADDFLPTLIYIVLKGNPPRLQSNIQYITRFCNPSRLMTGEDGYYFTNLCCAVAFIEKLDAQSLNLSQEDFDRYMSGQTSPRKQEAESWSPDACLGVKQMYKNLDLLSQLNERQERIMNEAKKLEKDLIDWTDGIAREVQDIVEKYPLEIKPPNQPLAAIDSENVENDKLPPPLQPQVYAG
B2: Unconventional myosin-VI (Homo sapiens), Q9UM54 (parent)
chain: MEDGKPVWAPHPTDGFQMGNIVDIGPDSLTIEPLNQKGKTFLALINQVFPAEEDSKKDVEDNCSLMYLNEATLLHNIKVRYSKDRIYTYVANILIAVNPYFDIPKIYSSEAIKSYQGKSLGTRPPHVFAIADKAFRDMKVLKMSQSIIVSGESGAGKTENTKFVLRYLTESYGTGQDIDDRIVEANPLLEAFGNAKTVRNNNSSRFGKFVEIHFNEKSSVVGGFVSHYLLEKSRICVQGKEERNYHIFYRLCAGASEDIREKLHLSSPDNFRYLNRGCTRYFANKETDKQILQNRKSPEYLKAGSMKDPLLDDHGDFIRMCTAMKKIGLDDEEKLDLFRVVAGVLHLGNIDFEEAGSTSGGCNLKNKSAQSLEYCAELLGLDQDDLRVSLTTRVMLTTAGGTKGTVIKVPLKVEQANNARDALAKTVYSHLFDHVVNRVNQCFPFETSSYFIGVLDIAGFEYFEHNSFEQFCINYCNEKLQQFFNERILKEEQELYQKEGLGVNEVHYVDNQDCIDLIEAKLVGILDILDEENRLPQPSDQHFTSAVHQKHKDHFRLTIPRKSKLAVHRNIRDDEGFIIRHFAGAVCYETTQFVEKNNDALHMSLESLICESRDKFIRELFESSTNNNKDTKQKAGKLSFISVGNKFKTQLNLLLDKLRSTGASFIRCIKPNLKMTSHHFEGAQILSQLQCSGMVSVLDLMQGGYPSRASFHELYNMYKKYMPDKLARLDPRLFCKALFKALGLNENDYKFGLTKVFFRPGKFAEFDQIMKSDPDHLAELVKRVNHWLTCSRWKKVQWCSLSVIKLKNKIKYRAEACIKMQKTIRMWLCKRRHKPRIDGLVKVGTLKKRLDKFNEVVSVLKDGKPEMNKQIKNLEISIDTLMAKIKSTMMTQEQIQKEYDALVKSSEELLSALQKKKQQEEEAERLRRIQEEMEKERKRREEDEKRRRKEEEERRMKLEMEAKRKQEEEERKKREDDEKRIQAEVEAQLARQKEEESQQQAVLEQERRDRELALRIAQSEAELISDEAQADLALRRSLDSYPVSKNDGTRPKMTPEQMAKEMSEFLSRGPAVLATKAAAGTKKYDLSKWKYAELRDTINTSCDIELLAACREEFHRRLKVYHAWKSKNKKRNTETEQRAPKSVTDYDFAPFLNNSPQQNPAAQIPARQREIEMNRQQRFFRIPFIRPADQYKDPQSKKKGWWYAHFDGPWIARQMELHPDKPPILLVAGKDDMEMCELNLEETGLTRKRGAEILPRQFEEIWERCGGIQYLQNAIESRQARPTYATAMLQSLLK

In the first assay the parent is B1. The settings on record: with ubb_human UBB.
Take A58G: the “effect of a mutation on the interaction” value is reported as “decreasing interaction”.

Another assay covers variants of B1. The settings on record: with ubb_human UBB. The source holds these as a separate data set.
On to Y25F, for which the “effect of a mutation on the interaction” value is given as “decreasing interaction”.

A further assay covers variants of B2. The settings on record: with ubb_human UBB.
For the variant A1013G, the “effect of a mutation on the interaction” value is listed as “decreasing interaction”.
